# Assay results reported in patent publication US6927041B2, “Human neuropeptide Y-like G protein-coupled receptor” (Bayer Corporation, priority 2000, dated 2005).
# Where no end group is shown, it is not given here.
# Target: T1, human NPY-like GPCR (Homo sapiens, UniProt Q96P65)
# T1 construct: expressed in transfected cells; host or cells: HEK293 (human embryonic kidney 293) cells, membrane preparation
# T1 sequence (Q96P65 1-431): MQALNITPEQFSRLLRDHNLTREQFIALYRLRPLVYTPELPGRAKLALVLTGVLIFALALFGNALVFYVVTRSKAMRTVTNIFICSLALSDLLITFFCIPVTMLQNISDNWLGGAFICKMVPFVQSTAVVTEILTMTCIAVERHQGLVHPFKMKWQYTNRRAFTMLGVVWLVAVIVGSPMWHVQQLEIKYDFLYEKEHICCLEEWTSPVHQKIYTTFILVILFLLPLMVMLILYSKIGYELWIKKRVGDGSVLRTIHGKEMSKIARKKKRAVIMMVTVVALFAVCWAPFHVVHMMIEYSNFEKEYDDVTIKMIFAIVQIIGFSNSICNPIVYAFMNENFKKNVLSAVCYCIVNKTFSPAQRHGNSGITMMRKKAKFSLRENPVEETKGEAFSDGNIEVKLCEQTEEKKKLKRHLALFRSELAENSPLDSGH
# Assay: Binding affinity of known peptides for the human NPY-like GPCR
# Conditions: human neuropeptide Y-like G protein-coupled receptor (SEQ ID NO:2); qualitative statement
# Experimental: Human embryonic kidney 293 cells transfected with a polynucleotide that expresses human NPY-like GPCR are scraped from a culture flask into 5 ml of Tris HCl, 5 mM EDTA, pH 7.5, and lysed by sonication. Cell lysates are centrifuged at 1000 rpm for 5 minutes at 4° C. The supernatant is centrifuged at 30,000×g for 20 minutes at 4° C. The pellet is suspended in binding buffer containing 50 mM Tris HCl, 5 mM MgSO4, 1 mM EDTA, 100 mM NaCl, pH 7.5, supplemented with 0.1% BSA, 2 μg/ml aprotinin, […], and 10 μg/ml phosphoramidon. Optimal membrane suspension dilutions, defined as the protein concentration required to bind less than 10% of the added radioligand, are added to 96-well polypropylene microtiter plates containing ^125I-labeled ligand or test compound, non-labeled peptides, and binding buffer to a final volume of 250 μl.
# In equilibrium saturation binding assays, membrane preparations are incubated in the presence of increasing concentrations (0.1 nM to 4 nM) of ^125I-labeled ligand or test compound (specific activity 2200 Ci/mmol). The binding affinities of different test compounds are determined in equilibrium competition binding assays, using 0.1 nM ^125I-peptide in the presence of twelve different concentrations of each test compound.
# Binding reaction mixtures are incubated for one hour at 30° C. […] Radioactivity is measured by scintillation counting, and data are analyzed by a computerized non-linear regression program.
# Non-specific binding is defined as the amount of radioactivity remaining after incubation of membrane protein in the presence of 100 nM of unlabeled peptide. Protein concentration is measured by the Bradford method using Bio-Rad Reagent, with bovine serum albumin as a standard. A test compound which […] the radioactivity of membrane protein by at least 15% relative to radioactivity of membrane protein that was not incubated with a test compound is identified as a compound which binds to a human NPY-like GPCR polypeptide.
row,Substance,binding affinity for the receptor
1,peptide YY: peptide that stimulates the Y1 receptor,do not appear to have binding affinity
2,Neuropeptide Y,do not appear to have binding affinity
3,"orexin-A (QPLPDCCRQKTCSCRLYELLHGAGNHAAGILTL; ends and bridges not checked; cysteine pairing not given here; UniProt O43612 34-66, looked up)",do not appear to have binding affinity
